In the Human Domainome abundance scans (Beltran et al. 2025) one finds abundance fitness data, which are given here for 35 variants.

The chains are these.
B1: Ankyrin-1, residues 1405 to 1484; numbered along this chain, P16157 (parent)
chain: MKMAVISEHLGLSWAELARELQFSVEDINRIRVENPNSLLEQSVALLNLWVIREGQNANMENLYTALQSIDRGEIVNMLE

± gives the uncertainty stated by the source.

The variants in this data set derive from B1. The data set can be described thus: abundance fitness (aPCA) (normalised: wild type 0, dead -1); higher = more abundant; growth selection in yeast, the domain comes from the species named. As to conditions: Homo sapiens.
Consider MKMAVISEVLGLSWAELARELQFSVEDINRIRVENPNSLLEQSVALLNLWVIREGQNANMENLYTALQSIDRGEIVNMLE [H9V], for which the abundance fitness is -0.712 ± 0.13.

Take MKMAVISEHLNLSWAELARELQFSVEDINRIRVENPNSLLEQSVALLNLWVIREGQNANMENLYTALQSIDRGEIVNMLE [G11N]: the abundance fitness is -0.161 ± 0.21.

As to MKMAVISEHLWLSWAELARELQFSVEDINRIRVENPNSLLEQSVALLNLWVIREGQNANMENLYTALQSIDRGEIVNMLE [G11W], the abundance fitness was -0.893 ± 0.18.

Turning to MKMAVISEHLELSWAELARELQFSVEDINRIRVENPNSLLEQSVALLNLWVIREGQNANMENLYTALQSIDRGEIVNMLE [G11E], the abundance fitness stood at 0.195 ± 0.14.

With MKMAVISEHLILSWAELARELQFSVEDINRIRVENPNSLLEQSVALLNLWVIREGQNANMENLYTALQSIDRGEIVNMLE [G11I], the abundance fitness is -0.726 ± 0.23.

In the case of MKMAVISEHLFLSWAELARELQFSVEDINRIRVENPNSLLEQSVALLNLWVIREGQNANMENLYTALQSIDRGEIVNMLE [G11F], the abundance fitness is -0.581 ± 0.16.

Turning to MKMAVISEHLDLSWAELARELQFSVEDINRIRVENPNSLLEQSVALLNLWVIREGQNANMENLYTALQSIDRGEIVNMLE [G11D], the abundance fitness is -0.171 ± 0.23.

MKMAVISEHLRLSWAELARELQFSVEDINRIRVENPNSLLEQSVALLNLWVIREGQNANMENLYTALQSIDRGEIVNMLE [G11R]: the abundance fitness was -0.41 ± 0.084.

In the case of MKMAVISEHLKLSWAELARELQFSVEDINRIRVENPNSLLEQSVALLNLWVIREGQNANMENLYTALQSIDRGEIVNMLE [G11K], the abundance fitness is -0.362 ± 0.17.

Turning to MKMAVISEHLHLSWAELARELQFSVEDINRIRVENPNSLLEQSVALLNLWVIREGQNANMENLYTALQSIDRGEIVNMLE [G11H], the abundance fitness came out at 0.028 ± 0.4.

Consider MKMAVISEHLMLSWAELARELQFSVEDINRIRVENPNSLLEQSVALLNLWVIREGQNANMENLYTALQSIDRGEIVNMLE [G11M], for which the abundance fitness is -0.447 ± 0.13.

For the variant MKMAVISEHLLLSWAELARELQFSVEDINRIRVENPNSLLEQSVALLNLWVIREGQNANMENLYTALQSIDRGEIVNMLE [G11L], the abundance fitness was -0.447 ± 0.11.

For the variant MKMAVISEHLPLSWAELARELQFSVEDINRIRVENPNSLLEQSVALLNLWVIREGQNANMENLYTALQSIDRGEIVNMLE [G11P], the abundance fitness was -0.997 ± 0.49.

Take MKMAVISEHLSLSWAELARELQFSVEDINRIRVENPNSLLEQSVALLNLWVIREGQNANMENLYTALQSIDRGEIVNMLE [G11S]: the abundance fitness was -0.616 ± 0.13.

Regarding MKMAVISEHLTLSWAELARELQFSVEDINRIRVENPNSLLEQSVALLNLWVIREGQNANMENLYTALQSIDRGEIVNMLE [G11T], the abundance fitness is -0.371 ± 0.1.

On to MKMAVISEHLYLSWAELARELQFSVEDINRIRVENPNSLLEQSVALLNLWVIREGQNANMENLYTALQSIDRGEIVNMLE [G11Y], for which the abundance fitness is -0.481 ± 0.28.

MKMAVISEHLQLSWAELARELQFSVEDINRIRVENPNSLLEQSVALLNLWVIREGQNANMENLYTALQSIDRGEIVNMLE [G11Q]: the abundance fitness was -0.276 ± 0.17.

MKMAVISEHLCLSWAELARELQFSVEDINRIRVENPNSLLEQSVALLNLWVIREGQNANMENLYTALQSIDRGEIVNMLE [G11C]: the abundance fitness was -0.737 ± 0.2.

MKMAVISEHLALSWAELARELQFSVEDINRIRVENPNSLLEQSVALLNLWVIREGQNANMENLYTALQSIDRGEIVNMLE [G11A]: the abundance fitness is -0.47 ± 0.079.

Consider MKMAVISEHLGWSWAELARELQFSVEDINRIRVENPNSLLEQSVALLNLWVIREGQNANMENLYTALQSIDRGEIVNMLE [L12W], for which the abundance fitness is -0.431 ± 0.2.

As to MKMAVISEHLGKSWAELARELQFSVEDINRIRVENPNSLLEQSVALLNLWVIREGQNANMENLYTALQSIDRGEIVNMLE [L12K], the abundance fitness is -0.133 ± 0.2.

As for MKMAVISEHLGTSWAELARELQFSVEDINRIRVENPNSLLEQSVALLNLWVIREGQNANMENLYTALQSIDRGEIVNMLE [L12T], the abundance fitness was 0.063 ± 0.18.

In the case of MKMAVISEHLGHSWAELARELQFSVEDINRIRVENPNSLLEQSVALLNLWVIREGQNANMENLYTALQSIDRGEIVNMLE [L12H], the abundance fitness came out at 0.274 ± 0.15.

On to MKMAVISEHLGGSWAELARELQFSVEDINRIRVENPNSLLEQSVALLNLWVIREGQNANMENLYTALQSIDRGEIVNMLE [L12G], for which the abundance fitness amounted to 0.104 ± 0.082.

Turning to MKMAVISEHLGISWAELARELQFSVEDINRIRVENPNSLLEQSVALLNLWVIREGQNANMENLYTALQSIDRGEIVNMLE [L12I], the abundance fitness amounted to 0.153 ± 0.32.

Take MKMAVISEHLGSSWAELARELQFSVEDINRIRVENPNSLLEQSVALLNLWVIREGQNANMENLYTALQSIDRGEIVNMLE [L12S]: the abundance fitness was determined as 0.243 ± 0.092.

MKMAVISEHLGQSWAELARELQFSVEDINRIRVENPNSLLEQSVALLNLWVIREGQNANMENLYTALQSIDRGEIVNMLE [L12Q]: the abundance fitness is -0.233 ± 0.24.

For the variant MKMAVISEHLGDSWAELARELQFSVEDINRIRVENPNSLLEQSVALLNLWVIREGQNANMENLYTALQSIDRGEIVNMLE [L12D], the abundance fitness was -0.124 ± 0.16.

With MKMAVISEHLGASWAELARELQFSVEDINRIRVENPNSLLEQSVALLNLWVIREGQNANMENLYTALQSIDRGEIVNMLE [L12A], the abundance fitness is 0.213 ± 0.085.

As to MKMAVISEHLGRSWAELARELQFSVEDINRIRVENPNSLLEQSVALLNLWVIREGQNANMENLYTALQSIDRGEIVNMLE [L12R], the abundance fitness is -0.038 ± 0.09.

As for MKMAVISEHLGESWAELARELQFSVEDINRIRVENPNSLLEQSVALLNLWVIREGQNANMENLYTALQSIDRGEIVNMLE [L12E], the abundance fitness is -0.499 ± 0.29.

Consider MKMAVISEHLGNSWAELARELQFSVEDINRIRVENPNSLLEQSVALLNLWVIREGQNANMENLYTALQSIDRGEIVNMLE [L12N], for which the abundance fitness came out at 0.139 ± 0.2.

Consider MKMAVISEHLGCSWAELARELQFSVEDINRIRVENPNSLLEQSVALLNLWVIREGQNANMENLYTALQSIDRGEIVNMLE [L12C], for which the abundance fitness worked out at 0.3 ± 0.5.

MKMAVISEHLGVSWAELARELQFSVEDINRIRVENPNSLLEQSVALLNLWVIREGQNANMENLYTALQSIDRGEIVNMLE [L12V]: the abundance fitness was 0.029 ± 0.087.

On to MKMAVISEHLGFSWAELARELQFSVEDINRIRVENPNSLLEQSVALLNLWVIREGQNANMENLYTALQSIDRGEIVNMLE [L12F], for which the abundance fitness was -0.069 ± 0.2.
